From patent US20210388087A1 (Chugai, published 2021)
Substitutions are numbered along the chain they refer to. Numbers in names are those of the source.

B1: H183/L072 VL V27cW (antibody, name in Kabat numbering, V domains shown)
VH: QVQLVESGGGLVQPGRSLRLSCAASGFTFSNAWMHWVRQAPGKGLEWVAQIKDKGNAYAAYYAPSVKGRFTISRDDSKNSIYLQMNSLKTEDTAVYYCHYVHYASASTVLPAFGVDAWGQGTTVTVSS
VL: DIVMTQSPLSLPVTPGEPASISCQASQELWHMNRNTYLHWYQQKPGQAPRLLIYKVSNRFPGVPDRFSGSGSGTDFTLKISRVEAEDVGVYYCAQGTSVPFTFGQGTKLEIK
B2: H183/L072 VL V51E (antibody, name in Kabat numbering, V domains shown)
VH: B1 VH
VL: B1 VL with W30V, V56E
B3: H183/L072 VL V94D (antibody, name in Kabat numbering, V domains shown)
VH: B1 VH
VL: B1 VL with W30V, V99D
B4: H183/L072 VL V51T (antibody, name in Kabat numbering, V domains shown)
VH: B1 VH
VL: B1 VL with W30V, V56T
B5: H183/L072 VL V51G (antibody, name in Kabat numbering, V domains shown)
VH: B1 VH
VL: B1 VL with W30V, V56G
B6: H183/L072 VL V51Q (antibody, name in Kabat numbering, V domains shown)
VH: B1 VH
VL: B1 VL with W30V, V56Q
B7: H183/L072 VL V51M (antibody, name in Kabat numbering, V domains shown)
VH: B1 VH
VL: B1 VL with W30V, V56M
B8: H183/L072 VL V51R (antibody, name in Kabat numbering, V domains shown)
VH: B1 VH
VL: B1 VL with W30V, V56R
B9: H183/L072 VL V51L (antibody, name in Kabat numbering, V domains shown)
VH: B1 VH
VL: B1 VL with W30V, V56L
B10: H183/L072 VL V51K (antibody, name in Kabat numbering, V domains shown)
VH: B1 VH
VL: B1 VL with W30V, V56K
B11: H183/L072 VL V27cY (antibody, name in Kabat numbering, V domains shown)
VH: B1 VH
VL: B1 VL with W30Y
B12: H183/L072 VL V51H (antibody, name in Kabat numbering, V domains shown)
VH: B1 VH
VL: B1 VL with W30V, V56H
B13: H183/L072 VL V94A (antibody, name in Kabat numbering, V domains shown)
VH: B1 VH
VL: B1 VL with W30V, V99A
B14: H183/L072 VL V51A (antibody, name in Kabat numbering, V domains shown)
VH: B1 VH
VL: B1 VL with W30V, V56A
B15: H183/L072 VL V51D (antibody, name in Kabat numbering, V domains shown)
VH: B1 VH
VL: B1 VL with W30V, V56D
B16: H183/L072 VL V51S (antibody, name in Kabat numbering, V domains shown)
VH: B1 VH
VL: B1 VL with W30V, V56S
B17: H183/L072 VL V51I (antibody, name in Kabat numbering, V domains shown)
VH: B1 VH
VL: B1 VL with W30V, V56I
B18: H183/L072 VL V94E (antibody, name in Kabat numbering, V domains shown)
VH: B1 VH
VL: B1 VL with W30V, V99E

Biological target: T1, Human CD3eg linker (human)
T1 construct: Single-chain construct; also called recombinant human CD3
T1 chain: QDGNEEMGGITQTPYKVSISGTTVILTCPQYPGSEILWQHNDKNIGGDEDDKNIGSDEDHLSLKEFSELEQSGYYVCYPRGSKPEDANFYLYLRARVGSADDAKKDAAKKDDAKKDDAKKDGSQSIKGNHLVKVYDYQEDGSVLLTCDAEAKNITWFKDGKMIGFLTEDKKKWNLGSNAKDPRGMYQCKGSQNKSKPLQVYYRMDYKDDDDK
Assay: SPR; fold vs parent H183/L072

Binder	fold change of affinity [fold]
B1	0.3
B2	0.4
B3	0.5
B4	0.2
B5	0.4
B6	0.5
B7	0.5
B8	0.9
B9	0.6
B10	0.8
B11	0.5
B12	0.2
B13	1
B14	0.6
B15	0
B16	0.3
B17	1.4
B18	0.4
